From IntAct's records for PubMed 24418540 come the findings set out here.

In the experiment the target is pebb_human CBFB (UniProt Q13951).
In the case of “Virion infectivity factor (Human immunodeficiency virus type 1 group M subtype B (isolate HXB2) (HIV-1)), P69723 E88A;W89A”, the “effect of a mutation on the interaction” value is “disrupting interaction strength”. Then “Virion infectivity factor (Human immunodeficiency virus type 1 group M subtype B (isolate HXB2) (HIV-1)), P69723 W89A”, with “disrupting interaction strength”; and “Virion infectivity factor (Human immunodeficiency virus type 1 group M subtype B (isolate HXB2) (HIV-1)), P69723 W38A”, with “decreasing interaction strength”.

On to “Virion infectivity factor (Human immunodeficiency virus type 1 group M subtype B (isolate HXB2) (HIV-1)), P69723 W21A”, for which the “effect of a mutation on the interaction” value was “disrupting interaction strength”. Then “Virion infectivity factor (Human immunodeficiency virus type 1 group M subtype B (isolate HXB2) (HIV-1)), P69723 Y69A”, with “decreasing interaction strength”.
